Reference: PMC9524020

Tests used:
Test in all cases: SPR
[1] = target: FcγRIIIa-158F-Afucosylated (human) (UniProt P08637)
[2] = target: FcγRIIIa-158F-CHO^WT (soluble FcγRIIIa, allotype 158F, from wild-type CHO) (human) (UniProt P08637)
[3] = target: FcγRIIIa-158F-G2FS(2-3) (human) (UniProt P08637)
[4] = target: FcγRIIIa-158F-G2FS(2-6) (human) (UniProt P08637)
[5] = target: FcγRIIIa-158F-HEK^WT (human) (UniProt P08637)
[6] = target: FcγRIIIa-158F-Hybrid (human) (UniProt P08637)
[7] = target: FcγRIIIa-158F-Monoantennae (human) (UniProt P08637)
Chain of FcγRIIIa-158F-Monoantennae (human) (P08637 17-208): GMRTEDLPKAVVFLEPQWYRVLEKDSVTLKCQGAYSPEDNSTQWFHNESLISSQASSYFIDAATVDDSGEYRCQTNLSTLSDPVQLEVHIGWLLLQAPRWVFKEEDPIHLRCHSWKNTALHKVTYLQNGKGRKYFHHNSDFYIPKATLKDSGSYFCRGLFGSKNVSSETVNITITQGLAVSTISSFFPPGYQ

[8] = target: FcγRIIIa-158V-Afucosylated (human)
[9] = target: FcγRIIIa-158V-CHO^WT (soluble FcγRIIIa, allotype 158V, from wild-type CHO) (human)
[10] = target: FcγRIIIa-158V-G2FS(2-3) (human)
[11] = target: FcγRIIIa-158V-G2FS(2-6) (human)
[12] = target: FcγRIIIa-158V-HEK^WT (human)
[13] = target: FcγRIIIa-158V-Hybrid (human)
[14] = target: FcγRIIIa-158V-Monoantennae (human)
[15] = target: FcγRIIIa-158V-Oligomannose (human)
[16] = target: biotinylated, recombinant, human FcγRIIIa-158F from SinoBiological (human) (UniProt P08637)
Chain of biotinylated, recombinant, human FcγRIIIa-158F from SinoBiological (human) (P08637 17-208): as above

[17] = target: biotinylated, recombinant, human FcγRIIIa-158V from SinoBiological (human)
[18] = target: FcγRIIIa-158V, FcγRIIIa-Afucosylated (human)
Chain of FcγRIIIa-158V, FcγRIIIa-Afucosylated (human) (P08637 17-208 F176V): as the sequence (P08637 17-208) above, with F160V counted along it

[19] = target: FcγRIIIa-158V, FcγRIIIa-G2FS(2-3) (human)
Chain of FcγRIIIa-158V, FcγRIIIa-G2FS(2-3) (human) (P08637 17-208 F176V): as the sequence (P08637 17-208) above, with F160V counted along it

[20] = target: FcγRIIIa-158V, FcγRIIIa-HEK^WT (human)
Chain of FcγRIIIa-158V, FcγRIIIa-HEK^WT (human) (P08637 17-208 F176V): as the sequence (P08637 17-208) above, with F160V counted along it

[21] = target: FcγRIIIa-158V, FcγRIIIa-Monoantennae (human)
Chain of FcγRIIIa-158V, FcγRIIIa-Monoantennae (human) (P08637 17-208 F176V): as the sequence (P08637 17-208) above, with F160V counted along it

[22] = target: FcγRIIIa-158V, FcγRIIIa-G2FS(2-6) (human)
Chain of FcγRIIIa-158V, FcγRIIIa-G2FS(2-6) (human) (P08637 17-208 F176V): as the sequence (P08637 17-208) above, with F160V counted along it

[23] = target: FcγRIIIa-158V, FcγRIIIa-Hybrid (human)
Chain of FcγRIIIa-158V, FcγRIIIa-Hybrid (human) (P08637 17-208 F176V): as the sequence (P08637 17-208) above, with F160V counted along it

[24] = target: FcγRIIIa-158V, FcγRIIIa-CHO^WT (human)
Chain of FcγRIIIa-158V, FcγRIIIa-CHO^WT (human) (P08637 17-208 F176V): as the sequence (P08637 17-208) above, with F160V counted along it

[25] = target: FcγRIIIa-158V, FcγRIIIa-Oligomannose (human)
Chain of FcγRIIIa-158V, FcγRIIIa-Oligomannose (human) (P08637 17-208 F176V): as the sequence (P08637 17-208) above, with F160V counted along it

Chain of FcγRIIIa-158F-HEK^WT (human) (P08637 17-208): as the sequence (P08637 17-208) above
Chain of FcγRIIIa-158F-G2FS(2-3) (human) (P08637 17-208): as above
Chain of FcγRIIIa-158F-CHO^WT (soluble FcγRIIIa, allotype 158F, from wild-type CHO) (human) (P08637 17-208): as above
Chain of FcγRIIIa-158F-Afucosylated (human) (P08637 17-208): as above
Chain of FcγRIIIa-158F-G2FS(2-6) (human) (P08637 17-208): as above
Chain of FcγRIIIa-158F-Hybrid (human) (P08637 17-208): as above

IgG1-G2FS(2-3) (mAb SO57) (antibody)
Kd [1]: 1.22 µM | Kd [2]: 1.88 µM | Kd [3]: 1.33 µM | Kd [4]: 0.832 µM | Kd [5]: 1.19 µM | Kd [6]: 1.22 µM | Kd [7]: 1.34 µM | Kd [8]: 0.275 µM | Kd [9]: 0.288 µM | Kd [10]: 0.385 µM | Kd [11]: 0.259 µM | Kd [12]: 0.259 µM | Kd [13]: 0.302 µM | Kd [14]: 0.312 µM | Kd [15]: 0.143 µM | Kd [16]: 0.953 µM | Kd [17]: 0.275 µM

IgG1-G2FS(2-6) (mAb SO57, α2-6 linked Sia)
Kd [18]: 0.26 µM | Kd [19]: 0.4 µM | Kd [20]: 0.26 µM | Kd [21]: 0.29 µM

IgG1-G2F (mAb SO57) (antibody)
Kd [1]: 1.21 µM | Kd [2]: 1.86 µM | Kd [3]: 1.37 µM | Kd [4]: 0.851 µM | Kd [5]: 1.15 µM | Kd [6]: 1.21 µM | Kd [7]: 1.27 µM | Kd [8]: 0.27 µM | Kd [9]: 0.278 µM | Kd [10]: 0.377 µM | Kd [11]: 0.262 µM | Kd [12]: 0.263 µM | Kd [13]: 0.297 µM | Kd [14]: 0.305 µM | Kd [16]: 0.965 µM

IgG1-G2FS(2-6) (mAb SO57) (antibody)
Kd [1]: 0.964 µM | Kd [2]: 1.86 µM | Kd [3]: 1.24 µM | Kd [5]: 1.05 µM | Kd [6]: 1.11 µM | Kd [7]: 1.11 µM | Kd [8]: 0.26 µM | Kd [10]: 0.398 µM | Kd [12]: 0.261 µM | Kd [13]: 0.281 µM | Kd [14]: 0.289 µM | Kd [15]: 0.145 µM | Kd [17]: 0.275 µM

IgG1-Oligomannose (mAb SO57) (antibody)
Kd [1]: 0.406 µM | Kd [2]: 0.582 µM | Kd [3]: 0.48 µM | Kd [5]: 0.383 µM | Kd [6]: 0.405 µM | Kd [7]: 0.428 µM | Kd [8]: 0.0883 µM | Kd [10]: 0.123 µM | Kd [11]: 0.0796 µM | Kd [12]: 0.0872 µM | Kd [13]: 0.104 µM | Kd [14]: 0.109 µM | Kd [15]: 0.0376 µM | Kd [17]: 0.0932 µM

IgG1-Hybrid (mAb SO57) (antibody)
Kd [1]: 2.21 µM | Kd [2]: 4.61 µM | Kd [5]: 2.51 µM | Kd [6]: 2.66 µM | Kd [7]: 2.2 µM | Kd [8]: 0.808 µM | Kd [9]: 0.869 µM | Kd [10]: 1.07 µM | Kd [11]: 0.573 µM | Kd [12]: 0.693 µM | Kd [13]: 0.471 µM | Kd [14]: 0.426 µM | Kd [15]: 0.399 µM | Kd [16]: 2.23 µM | Kd [17]: 0.598 µM

IgG1-CHO^WT (anti-rabies human IgG1 mAb SO57 from wild-type CHO) (antibody)
Kd [1]: 2.33 µM | Kd [2]: 3.49 µM | Kd [3]: 2.54 µM | Kd [4]: 1.68 µM | Kd [5]: 2.16 µM | Kd [6]: 2.22 µM | Kd [7]: 2.35 µM | Kd [8]: 0.464 µM | Kd [9]: 0.489 µM | Kd [10]: 0.624 µM | Kd [11]: 0.443 µM | Kd [12]: 0.44 µM | Kd [13]: 0.456 µM | Kd [14]: 0.489 µM | Kd [15]: 0.242 µM | Kd [16]: 1.78 µM | Kd [17]: 0.44 µM

IgG1-G2F (mAb SO57, galactosylated)
Kd [18]: 0.27 µM | Kd [19]: 0.38 µM | Kd [22]: 0.26 µM | Kd [20]: 0.26 µM | Kd [23]: 0.3 µM | Kd [21]: 0.3 µM

IgG1-G0 (mAb SO57, afucosylated, agalactosylated)
Kd [24]: 0.037 µM | Kd [19]: 0.038 µM | Kd [23]: 0.033 µM | Kd [21]: 0.038 µM | Kd [25]: 0.014 µM

IgG1-Hybrid (mAb SO57, hybrid N-glycan)
Kd [18]: 0.81 µM | Kd [24]: 0.87 µM | Kd [19]: 1.1 µM | Kd [20]: 0.69 µM | Kd [23]: 0.47 µM | Kd [25]: 0.4 µM

IgG1-Monoantennae (mAb SO57, monoantennary N-glycan)
Kd [18]: 0.7 µM | Kd [24]: 0.64 µM | Kd [19]: 0.93 µM | Kd [22]: 0.75 µM | Kd [20]: 0.64 µM | Kd [23]: 0.74 µM | Kd [21]: 0.73 µM | Kd [25]: 0.38 µM

IgG1-G2FS(2-3) (mAb SO57, α2-3 linked Sia)
Kd [24]: 0.29 µM | Kd [22]: 0.26 µM | Kd [20]: 0.26 µM | Kd [23]: 0.3 µM | Kd [21]: 0.31 µM

IgG1-G0 (mAb SO57) (antibody)
Kd [1]: 0.164 µM | Kd [2]: 0.213 µM | Kd [3]: 0.184 µM | Kd [7]: 0.17 µM | Kd [8]: 0.0296 µM | Kd [9]: 0.0369 µM | Kd [11]: 0.0297 µM | Kd [13]: 0.033 µM | Kd [14]: 0.0376 µM | Kd [15]: 0.0142 µM | Kd [17]: 0.0329 µM

IgG1-Monoantennae (mAb SO57) (antibody)
Kd [8]: 0.698 µM | Kd [9]: 0.635 µM | Kd [10]: 0.935 µM | Kd [11]: 0.755 µM | Kd [12]: 0.643 µM | Kd [13]: 0.742 µM | Kd [14]: 0.731 µM | Kd [15]: 0.375 µM | Kd [16]: 3.26 µM | Kd [17]: 0.761 µM

IgG1-Oligomannose (mAb SO57, Man5)
Kd [18]: 0.088 µM | Kd [22]: 0.08 µM | Kd [20]: 0.087 µM | Kd [25]: 0.038 µM
